Source: patent publication US20130224191A1, “NOTUM PROTEIN MODULATORS AND METHODS OF USE” (priority 2010, published 2013)

Tests used:
[1] = target: T1, Notum being secreted from the 293-Notum cells (Homo sapiens, UniProt Q6P988); assay: Co-culture Wnt3A assay, effector cells with 293.TCF reporter cells; assay type: cell-based; details: antibody 10 μg/mL
T1 construct: expressed in transfected cells; host or cells: 293T (293.Notum)
T1 sequence (Q6P988 20-496): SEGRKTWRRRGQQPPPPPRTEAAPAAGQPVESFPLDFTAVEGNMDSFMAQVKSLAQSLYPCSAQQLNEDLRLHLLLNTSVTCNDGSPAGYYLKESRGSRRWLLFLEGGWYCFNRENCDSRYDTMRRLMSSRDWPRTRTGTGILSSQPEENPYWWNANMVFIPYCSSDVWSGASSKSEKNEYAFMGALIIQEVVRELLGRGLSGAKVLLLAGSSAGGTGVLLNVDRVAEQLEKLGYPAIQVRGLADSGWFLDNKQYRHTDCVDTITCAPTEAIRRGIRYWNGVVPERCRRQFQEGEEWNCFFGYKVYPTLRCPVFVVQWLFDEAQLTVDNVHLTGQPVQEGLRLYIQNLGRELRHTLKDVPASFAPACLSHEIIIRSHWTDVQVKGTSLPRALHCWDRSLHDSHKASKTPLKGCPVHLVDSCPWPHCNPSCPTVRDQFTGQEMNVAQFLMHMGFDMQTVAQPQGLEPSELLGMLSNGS
Method: In order to more closely model the behavior of Notum producing cells in vivo, co-culture experiments were performed in which effector cells, either parental 293T cells (293.null) or 293T cells expressing soluble Notum (i.e., 293.Notum cells), were mixed in varying ratios with reporter 293.TCF cells. Notum activity or inhibition in the presence of antibodies was then determined from these cell mixtures after treatment with Wnt3A CM. Briefly, three different ratios of effector to reporter cells were tested: 2:1, 1:[…], corresponding to 5×10^4: 2.5×10^4, 2.5×10^4: 2.5×10^4 cells, or 2.5×10^41.0×10^4 cells per well of a 96-well plate by mixing the cells in 50 μL serum free medium per well prior to plating.
For the antibody antagonism experiments, the mixture of cells was plated into wells containing 25 μL of DMEM+0.2% FBS and antibody at a final concentration of 10 μg/mL. Twenty-three hours after plating, 25 μL of Wnt3A or control L-cell CM were added to each well. Eighteen hours after addition of CM, 100 μL of One-Glo solution (ProMega Corp.) was added to each well. The contents of each well were then mixed thoroughly to lyse the cells, 100 μL of lysate transferred to black 96-well plates, and the luminescence read after 5 minutes.

HCT-116 cells = assay: Cell survival/proliferation, CellTiterGlo, HCT-116; assay type: cell-based, human
Method: To determine whether Notum protein impacts cell proliferation and/or apoptosis of human colorectal cancer cells, HCT-116 cells or mouse lineage-depleted NTX tumor cells (i.e. human tumor cells) were plated as described below and exposed to recombinant hNotum (e.g. hNotum-His or hNotum-hFc) and anti-Notum antibodies. Cell numbers were then assessed 12-14 days later.
Cells were then incubated for 14 days at 37° C., 5% CO2 and 5% O2 and the number of viable cells was assessed using Promega's CellTiterGlo assay kit per the manufacturer's instructions. For the HCT-116 cell line (a commercially available colorectal tumor cell line), cells were plated at 2,000 cells per well in DMEM+1% FBS, followed 24-hours later by the addition of serum free DMEM containing recombinant human Notum in the presence or absence of monoclonal antibodies SC2.D2.2 or SC2.10B3. HCT-116 cells were then incubated for 12 days at 37° C., 5% CO2 and cell viability was assessed with Promega's CellTiterGlo assay kit. Higher readings are indicative of higher viable cell counts.

Notum = target: T2, Notum (Homo sapiens, UniProt Q6P988); assay: Epitope mapping ELISA, human Notum; assay type: binding; design: made in house
T2 sequence (Q6P988 20-496): T1 sequence (Q6P988 20-496)
Method: Binding of SC2.D2.2 and other mouse mAbs to purified Notum molecules generated from transient transfection of Human and Mouse Notum cDNAs were tested using ELISA assay with human Notum, mouse Notum and chimeric human/mouse Notum coated directly on ELISA plate. Binding of anti-Notum mAbs was detected with HRP-conjugated goat anti mouse antibody and followed by colorimetric horseradish peroxidase substrate (TMB substrate Thermo Scientific). The absorbance of each well of the ELISA plates was measured at 450 nm on a microplate autoreader.

[2] = target: T3, hNotum-His (His tagged human Notum) (human, UniProt Q6P988 20-496); assay: sandwich ELISA: SC2.D2.2 coated at 2 ug/ml captures Notum-His, detected with biotinylated mouse polyclonal anti-Notum 0.5 ug/ml and streptavidin-HRP, TMB, OD450
T3 construct: also called human Notum-His; NOTUM-StrepHis
T3 sequence: T1 sequence (Q6P988 20-496)
Method: More specifically, murine SC2.D2.2 was absorbed on standard ELISA plates at 2 μg/ml in a 50 mM sodium carbonate buffer at pH9.6. After washing the plates with PBS containing 0.05% (v/v) Tween-20 (PBST), the plates were blocked in PBS containing 2% (w/v) bovine serum albumin (BSA buffer) for two hours at ambient temperature. The content of the plates was flicked off, and purified recombinant Notum-His at varying concentrations (i.e., to provide the standard curve) or patient samples diluted in BSA buffer were added to the plates for a minimum of two hours at ambient temperature. The plates were washed in PBST before adding Notum-specific mouse polyclonal antibody conjugated to biotin at 0.5 μg/ml in BSA buffer. After incubation for one hour, the plate was washed again with PBST and incubated for 30 minutes with a 1:2000 dilution of Streptavidin conjugated to horse radish peroxidase (Jackson Immuno Research). After washing all plates twice with PBST, 100 μl TMB substrate (Thermo Scientific) was added to the wells and incubated for 30 minutes in the dark. Color reaction was stopped by adding 100 μl/well 2M sulfuric acid. Absorbance at OD 450 nm was read in all wells using a standard plate reader.

B1: SC2.D2.2 (antibody, V domains shown)
VH: DVQLVESGGGLVQPGGSRKISCAASGFTFSSYGMHWVRQAPEKGLEWVAYISSSTVTTYYADTVKGRFTISRDNANNTLFLQMTSLRSEDTAMYYCSRQNWDGGYFDVWGAGTTVTVSS
VL: DIVLTQSLASLAVSLGQRATISCRASKSVSSSGYSYMHWYQQKPGQPPKLLIYLASNLESGVPARFSGSGSGTDFTLNIHPVEEEDAATYYCQHSRALPLTFGAGTKLELKR
notes: also called murine SC2.D2.2
Wnt3A-induced luciferase ([1]; co-cultures of 293.Notum and 293.TCF cells): increases the amount of Wnt3A-induced luciferase | induction of luciferase activity by Wnt3A CM ([1]; co-cultures of 293.null and 293.TCF cells): little effect | effect on hNotum induced increase in cell numbers (HCT-116 cells): blocked | binding to human Notum (Notum): confirmed the binding | EC50 (read off the curve) [2]: ~9 ng/mL
